Legend:
HeLa Kyoto [1] = assay: thermal stability score vs G1/S (z-score of summed log2 fold changes over temperatures); higher = more thermally stable than in G1/S
HeLa Kyoto [2] = assay: solubility in G1/S (NP-40 vs SDS abundance) (log2 ratio); higher = more soluble; conditions: cell cycle stage: G1/S
HeLa Kyoto [3] = assay: melting temperature (median over replicates), in situ; higher = more thermally stable
HeLa Kyoto [4] = assay: solubility change mitosis vs G1/S (difference of NP-40 vs SDS log2 ratios) (log2 ratio difference); higher = more soluble in mitosis
[5] = cell cycle stage: early G1 (4.5 h after nocodazole release)
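Wherever melting temperature (median over replicates), in situ is given: HeLa Kyoto cells synchronized by double thymidine or nocodazole block, proteins quantified by TMT10plex mass spectrometry, three independent biological replicates.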
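Wherever solubility change mitosis vs G1/S (difference of NP-40 vs SDS log2 ratios) is given: synchronized HeLa Kyoto cells (double thymidine block for G1/S, nocodazole release for mitosis), protein amounts in NP-40 versus SDS lysates quantified by mass spectrometry, three biological replicates.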
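Wherever solubility in G1/S (NP-40 vs SDS abundance) is given: HeLa Kyoto cells arrested at G1/S by double thymidine block, proteins quantified by TMT10plex mass spectrometry in mild NP-40 versus SDS extracts, three biological replicates.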
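Wherever thermal stability score vs G1/S (z-score of summed log2 fold changes over temperatures) is given: synchronized HeLa Kyoto cells, proteins quantified by TMT10plex mass spectrometry, three biological replicates, mitosis taken 0.5 h after nocodazole release, G1/S directly after double thymidine block.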

Row | Sequence | thermal stability score (HeLa Kyoto [1]; [5]) | thermal stability score (HeLa Kyoto [1]; cell cycle stage: mitosis) | solubility in G1/S (log2) (HeLa Kyoto [2]) | melting temperature (HeLa Kyoto [3]; cell cycle stage: G1/S) | melting temperature (HeLa Kyoto [3]; cell cycle stage: mitosis) | solubility change mitosis (log2) (HeLa Kyoto [4])
1 | MSKLKVIPEKSLTNNSRIVGLLAQLEKINAEPSESDTARYVTSKILHLAQSQEKTRREMTAKGSTGMEILLSTLENTKDLQTTLNILSILVELVSAGGGRRVSFLVTKGGSQILLQLLMNASKESPPHEDLMVQIHSILAKIGPKDKKFGVKARINGALNITLNLVKQNLQNHRLVLPCLQLLRVYSANSVNSVSLGKNGVVELMFKIIGPFSKKNSSLIKVALDTLAALLKSKTNARRAVDRGYVQVLLTIYVDWHRHDNRHRNMLIRKGILQSLKSVTNIKLGRKAFIDANGMKILYNTSQECLAVRTLDPLVNTSSLIMRKCFPKNRLPLPTIKSSFHFQLPVIPVTGPVAQLYSLPPEVDDVVDESDDNDDIDVEAENETENEDDLDQNFKNDDIETDINKLKPQQEPGRTIEDLKMYEHLFPELVDDFQDYDLISKEPKPFVFEGKVRGPIVVPTAGEETSGNSGNLRKVVMKENISSKGDEGEKKSTFMDLAKEDIKDNDRTLQQQPGDQNRTISSVHGLNNDIVKALDRITLQNIPSQTAPGFTAEMKKDCSLPLTVLTCAKACPHMATCGNVLFEGRTVQLGKLCCTGVETEDDEDTESNSSVEQASVEVPDGPTLHDPDLYIEIVKNTKSVPEYSEVAYPDYFGHIPPPFKEPILERPYGVQRTKIAQDIERLIHQSDIIDRVVYDLDNPNYTIPEEGDILKFNSKFESGNLRKVIQIRKNEYDLILNSDINSNHYHQWFYFEVSGMRPGVAYRFNIINCEKSNSQFNYGMQPLMYSVQEALNARPWWIRMGTDICYYKNHFSRSSVAAGGQKGKSYYTITFTVNFPHKDDVCYFAYHYPYTYSTLQMHLQKLESAHNPQQIYFRKDVLCETLSGNSCPLVTITAMPESNYYEHICHFRNRPYVFLSARVHPGETNASWVMKGTLEYLMSNNPTAQSLRESYIFKIVPMLNPDGVINGNHRCSLSGEDLNRQWQSPSPDLHPTIYHAKGLLQYLAAVKRLPLVYCDYHGHSRKKNVFMYGCSIKETVWHTNDNATSCDVVEDTGYRTLPKILSHIAPAFCMSSCSFVVEKSKESTARVVVWREIGVQRSYTMESTLCGCDQGKYKGLQIGTRELEEMGAKFCVGLLRLKRLTSPLEYNLPSSLLDFENDLIESSCKVTSPTTYVLDEDEPRFLEEVDYSAESNDELDIELAENVGDYEPSAQEEVLSDSELSRTYLP [AGTPBP1] | -0.000956 | 0.14 | -0.204 | 50.2 °C | 50.3 °C | -0.0731
2 | MGKRQHQKDKMYITCAEYTHFYGGKKPDLPQTNFRRLPFDHCSLSLQPFVYPVCTPDGIVFDLLNIVPWLKKYGTNPSNGEKLDGRSLIKLNFSKNSEGKYHCPVLFTVFTNNTHIVAVRTTGNVYAYEAVEQLNIKAKNFRDLLTDEPFSRQDIITLQDPTNLDKFNVSNFYHVKNNMKIIDPDEEKAKQDPSYYLKNTNAETRETLQELYKEFKGDEILAATMKAPEKKKVDKLNAAHYSTGKVSASFTSTAMVPETTHEAAAIDEDVLRYQFVKKKGYVRLHTNKGDLNLELHCDLTPKTCENFIRLCKKHYYDGTIFHRSIRNFVIQGGDPTGTGTGGESYWGKPFKDEFRPNLSHTGRGILSMANSGPNSNRSQFFITFRSCAYLDKKHTIFGRVVGGFDVLTAMENVESDPKTDRPKEEIRIDATTVFVDPYEEADAQIAQERKTQLKVAPETKVKSSQPQAGSQGPQTFRQGVGKYINPAATKRAAEEEPSTSATVPMSKKKPSRGFGDFSSW [PPIL2] | 0.984 | 1.06 | 0.00272 | 47.5 °C | 48.4 °C | -0.019
3 | MATKIDKEACRAAYNLVRDDGSAVIWVTFKYDGSTIVPGEQGAEYQHFIQQCTDDVRLFAFVRFTTGDAMSKRSKFALITWIGENVSGLQRAKTGTDKTLVKEVVQNFAKEFVISDRKELEEDFIKSELKKAGGANYDAQTE [COTL1] | 3.44 | 1.43 | 0.108 | 52.4 °C | 52.8 °C | 0.0356
4 | MLRSVWNFLKRHKKKCIFLGTVLGGVYILGKYGQKKIREIQEREAAEYIAQARRQYHFESNQRTCNMTVLSMLPTLREALMQQLNSESLTALLKNRPSNKLEIWEDLKIISFTRSTVAVYSTCMLVVLLRVQLNIIGGYIYLDNAAVGKNGTTILAPPDVQQQYLSSIQHLLGDGLTELITVIKQAVQKVLGSVSLKHSLSLLDLEQKLKEIRNLVEQHKSSSWINKDGSKPLLCHYMMPDEETPLAVQACGLSPRDITTIKLLNETRDMLESPDFSTVLNTCLNRGFSRLLDNMAEFFRPTEQDLQHGNSMNSLSSVSLPLAKIIPIVNGQIHSVCSETPSHFVQDLLTMEQVKDFAANVYEAFSTPQQLEK [PEX3] | 0.401 | 0.184 | 0.0923 | 50 °C | 49 °C | -0.208
5 | MDTPLRRSRRLGGLRPESPESLTSVSRTRRALVEFESNPEETREPGSPPSVQRAGLGSPERPPKTSPGSPRLQQGAGLESPQGQPEPGAASPQRQQDLHLESPQRQPEYSPESPRCQPKPSEEAPKCSQDQGVLASELAQNKEELTPGAPQHQLPPVPGSPEPYPGQQAPGPEPSQPLLELTPRAPGSPRGQHEPSKPPPAGETVTGGFGAKKRKGSSSQAPASKKLNKEELPVIPKGKPKSGRVWKDRSKKRFSQMLQDKPLRTSWQRKMKERQERKLAKDFARHLEEEKERRRQEKKQRRAENLKRRLENERKAEVVQVIRNPAKLKRAKKKQLRSIEKRDTLALLQKQPPQQPAAKI [CCDC86] | -0.356 | -4.77 | -1.03 | 57.2 °C | 54.1 °C | 0.956
6 | MNPDLRRERDSASFNPELLTHILDGSPEKTRRRREIENMILNDPDFQHEDLNFLTRSQRYEVAVRKSAIMVKKMREFGIADPDEIMWFKKLHLVNFVEPVGLNYSMFIPTLLNQGTTAQKEKWLLSSKGLQIIGTYAQTEMGHGTHLRGLETTATYDPETQEFILNSPTVTSIKWWPGGLGKTSNHAIVLAQLITKGKCYGLHAFIVPIREIGTHKPLPGITVGDIGPKFGYDEIDNGYLKMDNHRIPRENMLMKYAQVKPDGTYVKPLSNKLTYGTMVFVRSFLVGEAARALSKACTIAIRYSAVRHQSEIKPGEPEPQILDFQTQQYKLFPLLATAYAFQFVGAYMKETYHRINEGIGQGDLSELPELHALTAGLKAFTSWTANTGIEACRMACGGHGYSHCSGLPNIYVNFTPSCTFEGENTVMMLQTARFLMKSYDQVHSGKLVCGMVSYLNDLPSQRIQPQQVAVWPTMVDINSPESLTEAYKLRAARLVEIAAKNLQKEVIHRKSKEVAWNLTSVDLVRASEAHCHYVVVKLFSEKLLKIQDKAIQAVLRSLCLLYSLYGISQNAGDFLQGSIMTEPQITQVNQRVKELLTLIRSDAVALVDAFDFQDVTLGSVLGRYDGNVYENLFEWAKNSPLNKAEVHESYKHLKSLQSKL [ACOX1] | -1.6 | -3.2 | 0.331 | 55.9 °C | 58.3 °C | -0.212
7 | MALHVPKAPGFAQMLKEGAKHFSGLEEAVYRNIQACKELAQTTRTAYGPNGMNKMVINHLEKLFVTNDAATILRELEVQHPAAKMIVMASHMQEQEVGDGTNFVLVFAGALLELAEELLRIGLSVSEVIEGYEIACRKAHEILPNLVCCSAKNLRDIDEVSSLLRTSIMSKQYGNEVFLAKLIAQACVSIFPDSGHFNVDNIRVCKILGSGISSSSVLHGMVFKKETEGDVTSVKDAKIAVYSCPFDGMITETKGTVLIKTAEELMNFSKGEENLMDAQVKAIADTGANVVVTGGKVADMALHYANKYNIMLVRLNSKWDLRRLCKTVGATALPRLTPPVLEEMGHCDSVYLSEVGDTQVVVFKHEKEDGAISTIVLRGSTDNLMDDIERAVDDGVNTFKVLTRDKRLVPGGGATEIELAKQITSYGETCPGLEQYAIKKFAEAFEAIPRALAENSGVKANEVISKLYAVHQEGNKNVGLDIEAEVPAVKDMLEAGILDTYLGKYWAIKLATNAAVTVLRVDQIIMAKPAGGPKPPSGKKDWDDDQND [CCT8] | -0.228 | -1.4 | 0.0969 | 54.2 °C | 53.9 °C | -0.0769
